From US20060165686A1 (NOVIMMUNE S A, published 2006)
Blank lines part the entries; values can stand above or below the binder they belong to.

How the values were obtained:
Assay in all cases: cell-based or functional assay
[1] = target: human toll-like receptor 2 (TLR2) (human, UniProt O60603 21-784)
[2] = target: T1, human MD-2 accessory protein (human, UniProt Q9Y6Y9 19-160)
T1 chain: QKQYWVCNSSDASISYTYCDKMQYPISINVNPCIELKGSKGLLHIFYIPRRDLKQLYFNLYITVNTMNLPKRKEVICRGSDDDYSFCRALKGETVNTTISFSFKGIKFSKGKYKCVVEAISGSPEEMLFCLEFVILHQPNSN

[3] = target: human toll-like receptor 4 (TLR4) (human, UniProt O00206 24-839)
Chain of human toll-like receptor 4 (TLR4) (O00206 24-839 limits assumed): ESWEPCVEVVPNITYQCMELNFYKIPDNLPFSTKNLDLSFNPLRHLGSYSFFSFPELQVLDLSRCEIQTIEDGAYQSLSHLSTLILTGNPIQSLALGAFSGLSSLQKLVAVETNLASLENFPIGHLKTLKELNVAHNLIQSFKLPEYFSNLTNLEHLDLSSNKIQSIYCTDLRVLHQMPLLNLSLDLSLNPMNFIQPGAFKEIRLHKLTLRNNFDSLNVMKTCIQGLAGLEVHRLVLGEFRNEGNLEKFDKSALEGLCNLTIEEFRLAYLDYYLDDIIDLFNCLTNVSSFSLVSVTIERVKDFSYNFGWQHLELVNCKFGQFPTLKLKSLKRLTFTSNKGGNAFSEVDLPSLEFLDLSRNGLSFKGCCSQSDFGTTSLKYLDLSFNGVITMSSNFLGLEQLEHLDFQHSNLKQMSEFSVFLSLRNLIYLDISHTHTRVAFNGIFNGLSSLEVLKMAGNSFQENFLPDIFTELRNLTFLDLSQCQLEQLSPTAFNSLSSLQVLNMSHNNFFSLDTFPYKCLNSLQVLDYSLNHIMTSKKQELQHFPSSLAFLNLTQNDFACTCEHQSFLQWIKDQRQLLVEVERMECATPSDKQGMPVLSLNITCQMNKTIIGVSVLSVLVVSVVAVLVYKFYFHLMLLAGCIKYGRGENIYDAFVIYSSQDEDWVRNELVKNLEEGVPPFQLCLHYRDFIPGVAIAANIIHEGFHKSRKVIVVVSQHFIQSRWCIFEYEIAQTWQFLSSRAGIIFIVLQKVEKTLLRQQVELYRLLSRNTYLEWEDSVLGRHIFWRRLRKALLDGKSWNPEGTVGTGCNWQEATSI

Chain of human toll-like receptor 2 (TLR2) (O60603 21-784): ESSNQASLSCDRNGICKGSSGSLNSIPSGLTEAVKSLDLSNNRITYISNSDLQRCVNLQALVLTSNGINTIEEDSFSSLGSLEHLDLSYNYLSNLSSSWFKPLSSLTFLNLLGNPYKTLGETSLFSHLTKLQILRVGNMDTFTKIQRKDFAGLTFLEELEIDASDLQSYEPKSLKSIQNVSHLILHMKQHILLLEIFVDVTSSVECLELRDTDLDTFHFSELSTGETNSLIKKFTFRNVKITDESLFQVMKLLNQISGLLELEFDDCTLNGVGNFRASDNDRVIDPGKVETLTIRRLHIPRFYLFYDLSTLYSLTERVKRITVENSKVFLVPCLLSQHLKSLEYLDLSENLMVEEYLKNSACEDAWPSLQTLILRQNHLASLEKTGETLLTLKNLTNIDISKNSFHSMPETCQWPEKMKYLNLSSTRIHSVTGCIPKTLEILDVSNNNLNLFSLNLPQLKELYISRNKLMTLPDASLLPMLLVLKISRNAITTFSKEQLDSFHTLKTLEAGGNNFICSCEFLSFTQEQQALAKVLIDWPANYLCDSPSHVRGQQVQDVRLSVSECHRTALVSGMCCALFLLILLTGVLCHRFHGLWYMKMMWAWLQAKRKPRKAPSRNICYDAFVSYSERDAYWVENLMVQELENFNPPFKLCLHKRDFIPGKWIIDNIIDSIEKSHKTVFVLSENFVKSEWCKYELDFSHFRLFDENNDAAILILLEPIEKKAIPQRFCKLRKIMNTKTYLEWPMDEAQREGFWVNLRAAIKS

IL-6 production induced by pseudomonas LPS in human whole blood [1]: ~50%
B1: α-human TLR2 MAb T2.5 (antibody, V domains shown)
VH: QVQLQQSGPELVNPGASVKLSCKASGFTFTTYGINWVKQGPGQGLEWIGWIYPRDGSTNFNENFKDKAALTVDTSSSTAYMELHSLTSEDSAVYFCARLTGGTFLDWWGQGTTLTVSS
VL: DIVLTQSPASLAVSLGQRATISCRASESVEYYGTSLMQWYQQKPGQPPKLLIFGASNVESGVPVRFSGSGSGTDFSLNIHPVEEDDIVMYFCQQSRKLPWTFGGGTKLEIKR

IL-6 production induced by pseudomonas LPS in human whole blood [2]: ~50%
B2: α-human MD-2 MAb 18H10 (murine 18H10 monoclonal antibody) (antibody, mouse IgG2b, V domains shown)
VH: QVQLQQSGADLVRPGALVKLSCTASGFNIKDSYIHWVKKRPEWGLEWIGWTDPENVNSIYDPRFQGKASITADTSSNTAFLQLTSLTSEDTAVYYCARGYNGVYYAMDYWGQGTSVTVSS
VL: QIVLTQSPSIMSASLGEEITLTCSASSSVIYMHWYQQKSGTSPKLLIYRTYNLASGVPSRFSGSGSGTFYSLTISSVEAEDAADYYCHQWSSFPYTFGGGTKLEIKR

IL-6 production induced by pseudomonas LPS in human whole blood [3]: ~50%
B3: α-human TLR4 MAb 15C1 (murine 15C1 monoclonal antibody) (antibody, mouse IgG1, V domains shown)
VH: DVQLQESGPDLIQPSQSLSLTCTVTGYSITGGYSWHWIRQFPGNKLEWMGYIHYSGYTDFNPSLKTRISITRDTSKNQFFLQLNSVTTEDTATYYCARKDPSDGFPYWGQGTLVTVSA
VL: DIVMTQSPATLSVTPGDRVSLSCRASQSISDHLHWYQQKSHESPRLLIKYASHAISGIPSRFSGSGSGTDFTLSIKSVEPEDIGVYYCQNGHSFPLTFGAGTKLELK
